{"source": "paper PMC9547003", "target": "bacteriophage T7 endonuclease I (C113S, S29C; called wild type in the paper), Cy3-labelled (bacteriophage T7) (UniProt P00641)", "assay": "two-step photobleaching of single fluorescent molecules (confocal microscopy with optical tweezers); Cy3-labelled endonuclease I (one dye on each monomer) diffusing on force-stretched dsDNA held between optically trapped beads; 1 nM protein, 25 mM Tris-HCl pH 7.5, 50 mM NaCl, 0.1% BSA, 1 mM CaCl2 or MgCl2", "data": [{"substance": "bacteriophage T7 endonuclease I (C113S, S29C; called wild type in the paper), Cy3-labelled (from UniProt P00641 1-149) (enzyme)", "values": [{"measurement": "stoichiometry N", "result": 2}]}]}
